{
  "source": "paper PMC10554743",
  "key": {"[1]": {"target": "McdB CC domain truncation (Synechococcus elongatus PCC 7942)", "assay": "SEC-MALS; Shodex PROTEIN KW-804; 50 µl at 1.5 mg/ml; 150 mM KCl, 20 mM Tris-HCl pH 8.2; BSA as calibration standard"}, "[2]": {"target": "McdB with four glutamine substitutions in the CTD", "assay": "SEC-MALS"}, "[3]": {"target": "McdB with four glutamine substitutions in the CTD", "assay": "SEC-MALS", "remark": "listed apart in the source"}, "[4]": {"target": "McdB CC + CTD truncation (Synechococcus elongatus PCC 7942)", "assay": "SEC-MALS; Shodex PROTEIN KW-804; 50 µl at 1.5 mg/ml; 150 mM KCl, 20 mM Tris-HCl pH 8.2; BSA as calibration standard"}, "[5]": {"target": "McdB with all six basic residues of the IDR substituted to glutamines (Synechococcus elongatus PCC 7942)", "assay": "SEC-MALS; Shodex PROTEIN KW-804; 50 µl at 1.5 mg/ml; 150 mM KCl, 20 mM Tris-HCl pH 8.2; BSA as calibration standard"}, "[6]": {"target": "McdB CTD 2Q left", "assay": "SEC-MALS"}, "[7]": {"target": "McdB with all six basic residues of the IDR substituted to glutamines", "assay": "SEC-MALS"}, "[8]": {"target": "Se7942 McdB (full-length, wild type) (Synechococcus elongatus PCC 7942)", "assay": "SEC-MALS; Shodex PROTEIN KW-804; 50 µl at 1.5 mg/ml; 150 mM KCl, 20 mM Tris-HCl pH 8.2; BSA as calibration standard"}, "[9]": {"target": "McdB IDR + CC truncation (Synechococcus elongatus PCC 7942)", "assay": "SEC-MALS; Shodex PROTEIN KW-804; 50 µl at 1.5 mg/ml; 150 mM KCl, 20 mM Tris-HCl pH 8.2; BSA as calibration standard"}},
  "data": [
    {"substance": "McdB CC domain truncation (domain or fragment)", "values": [
      {"measurement": "stoichiometry N", "setting": "[1]", "result": 2}
    ]},
    {"substance": "Se7942 McdB (full-length, wild type) CTD all: … -> … (E->Q, E->Q, E->Q, D->Q at segment positions 1, 2, 9, 11)", "values": [
      {"measurement": "other: multiple (oligomer MW over monomer MW)", "setting": "[2]; parent: 5.5", "result": 1.8, "unit": "x"},
      {"measurement": "other: oligomer MW (SEC-MALS)", "setting": "[2]; parent: 96.4", "result": 31.8, "unit": "kDa"},
      {"measurement": "other: multiple (oligomer MW over monomer MW)", "setting": "[3]; parent: 5.5", "result": 1.8, "unit": "x"},
      {"measurement": "other: oligomer MW (SEC-MALS)", "setting": "[3]; parent: 96.4", "result": 31.8, "unit": "kDa"}
    ]},
    {"substance": "McdB CC + CTD truncation (domain or fragment)", "values": [
      {"measurement": "stoichiometry N", "setting": "[4]", "result": 6}
    ]},
    {"substance": "McdB with all six basic residues of the IDR substituted to glutamines (natural protein)", "values": [
      {"measurement": "stoichiometry N", "setting": "[5]", "result": 6}
    ]},
    {"substance": "Se7942 McdB (full-length, wild type) CTD 2Q left: … -> … (E->Q, E->Q at segment positions 1, 2)", "values": [
      {"measurement": "other: multiple (oligomer MW over monomer MW)", "setting": "[6]; parent: 5.5", "result": 4.5, "unit": "x"},
      {"measurement": "other: oligomer MW (SEC-MALS)", "setting": "[6]; parent: 96.4", "result": 77.8, "unit": "kDa"}
    ]},
    {"substance": "Se7942 McdB (full-length, wild type) R7Q; K9Q; K10Q; R11Q; R13Q; R18Q", "values": [
      {"measurement": "other: multiple (oligomer MW over monomer MW)", "setting": "[7]; parent: 5.5", "result": 5.6, "unit": "x"},
      {"measurement": "other: oligomer MW (SEC-MALS)", "setting": "[7]; parent: 96.4", "result": 96.1, "unit": "kDa"}
    ]},
    {"substance": "Se7942 McdB (full-length, wild type) (natural protein)", "values": [
      {"measurement": "stoichiometry N", "setting": "[8]", "result": 6}
    ]},
    {"substance": "McdB IDR + CC truncation (domain or fragment)", "values": [
      {"measurement": "stoichiometry N", "setting": "[9]", "result": 2}
    ]}
  ]
}
